Measurements reported in patent US20220195015A1.

Target: SARS-CoV-2 spike (S) protein on pseudotyped HIV-1 reporter virus (SARS-CoV-2) (UniProt P0DTC2)
Assay: cell-based or functional assay

Sequence of C144 (antibody) (VH): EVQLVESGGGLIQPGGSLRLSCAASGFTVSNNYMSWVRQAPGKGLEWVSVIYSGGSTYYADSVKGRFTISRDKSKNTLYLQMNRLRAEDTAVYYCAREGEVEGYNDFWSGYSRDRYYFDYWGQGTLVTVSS
Sequence of C144 (antibody) (VL): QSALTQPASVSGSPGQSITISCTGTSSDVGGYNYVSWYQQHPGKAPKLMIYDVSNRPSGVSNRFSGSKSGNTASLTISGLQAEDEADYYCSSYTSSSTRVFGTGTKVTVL

C144 (antibody) gave an IC50 of 0.00286 µg/mL and an IC90 of 0.0405 µg/mL.
